{"source": "the DeepSol protein solubility set"}
{"assay": "soluble on expression in E. coli; label from the status in PepcDB or PDB records"}
{"sequence": "LAADQFIVDRPMPEDPYGKTIIAGYHWFSDWGRDTMISLPGLTISTGRPEVARSIIRTFARYVDQGMLPNRFPDAGEQPEYNTVDATLWYFEAVRAYYSATDDDTLLGELFPILADIIDWHCRGTRYNIHLDAADGLLYAGVTGVQLTWMDAKVDDWVVTPRIGKPIEVNALWYNALRTMAKFARHLGKPHQEYEAMADRAKYRFSRFWNDETGYCYDVLDSPNGDDAALRPNQIFAVSLPESPLTPAQQRSVVEVCGRRLLTSHGLRSLAPDHPQYQGKYGGNQYQRDGAYHQGTVWGWLLGPFVLAHLRVYKNPEQARQFLEPMANHLTKHGLGSLSEIFDGDAPMTARGCIAQAWTVAEVLRAWFATES", "soluble on expression in E. coli": "not soluble"}
{"sequence": "DEPILSFSPKTYSFRQDGRIKEVSVFTYHKKYNPDKHYIYVVRILREGQIEPSFVFRTFDEFQELHNKLSIIFPLWKLPGFPNRMVLGRTHIKDVAAKRKIELNSYLQSLMNASTDVAECDLVCTFFHPLLRDEKAEGIA", "soluble on expression in E. coli": "soluble"}
{"sequence": "MATTLPVQRHPRSLFPEFSELFAAFPSFAGLRPTFDTRLMRLEDEMKEGRYEVRAELPGVDPDKDVDIMVRDGQLTIKAERTEQKDFDGRSEFAYGSFVRTVSLPVGADEDDIKATYDKGILTVSVAVSEGKPTEKHIQIRSTN", "soluble on expression in E. coli": "soluble"}
{"sequence": "MSLTAPLEWKQANFLSISDSHGWLLGHQHSTWPEPNYSGNYGSFASFVIHMRKIADEKGVDLLLIDAGDHHDGSGLVSSSPDSASLAEDIFSMISYDVITIGNHELYHYADALDIYENHERWGGRYVTSNVNITVKREGEWQSVPIGQTHLKFTTKQGYNVTAFGVIFDFKAHDKGITVQKPSKLVHEPWFQEAIRDAPDYFILAGHMPVRGETAEFAPVFDAIRDIHPQVPIFLFGGHTHVRDCVQYDERSIGVVPGKYLETVAFTSSSLPSSSGDDRPLDVARSYQWHTNQTSYTFDTEGHHHHHH", "soluble on expression in E. coli": "soluble"}
{"sequence": "HQIGEDTYIVQGTMTLNDFNNYFDVELESDDVDTIAGYYLTGVGTIPTTEKLSYELVSQNKQFILTNDKVKNGRVTKVKVQITEVEIEEETE", "soluble on expression in E. coli": "not soluble"}
{"sequence": "MNRVQSGFRVPARVLNSLAHLQDGLNIFMDPDWRQIRHVDDWALAITMESAELIDSYPWKWWKNVKAQTDMHNVRIEIADILHFSLSGEIQKRTQDEKGADDVALKSLKEMGFFCRPPAHAKSTAASGQRTNGGDGDGDDELLELMFFPLTEVASAVATFRNIIQLASIYRFDLITKGLLLAAQDLDFNLVGYYVAKYTLNQIRQLKGYKEGVYVKVREGVEDNELLHECVQSVSVEDVLNEGTYLKAWEKIACSVFDAFGMPEEERRHAYDWLKSAALDGKG", "soluble on expression in E. coli": "soluble"}
{"sequence": "MKREQVMGEGNYSLASHHIFGVDNANKMLFSPLDNAKNGMKIYLTDKNKVYTYEIREVKRVTPDRVDEVDDRDGVNEITLVTCEDLAATERIIVKGDLKETKDYSQTSNEILTAFNQPYKQFY", "soluble on expression in E. coli": "not soluble"}
{"sequence": "KVGISMFNILQSTQLSSNTFDFWLEAPRIATHAQAGQFVILRIDEKGERIPLTIAETNPQAGSIRIIFQVIGKTTAALSQLKTSDSLLDITGPLGMPTEVKQYGTVMVVGGGVGIAAIYPIIKALKEAGNRVITILGARTAELVLLQEECRRYSDELIITTDDGSLGKKGLVTEAMEEVIARESVACSWAIGPSIMMKFCTLTAEKHQLPIYVSLNPIMIDGTGMCGGCRVTVDGTMKFACVDGPEFKGNEVNWDEFINRMKQYQEEEAVCFTDRLKEQVEKNG", "soluble on expression in E. coli": "not soluble"}
{"sequence": "MLKKRKLGRRIGEIQAGEKLVFQAAIEDKDLLLYLGLTDDANPLYIQHDYASQTPFGKPVVPPVMLTGMITSAVSKYLPGPGSYITRQDLRFLRPVYHYETLEFLLEVADVDEAGHCVTLSVMATRGAETVLDGTLSVCPPHTLPRLDGRVLENF", "soluble on expression in E. coli": "not soluble"}
{"sequence": "MSFSADEVRFLAQSEREIAEMTADLDLSKKSMISDVATLRKHFGDFGRAVAELAGARRSAVGKLPQDWLMCQESAQQTTPPAVSAERARRLKTALGENVIVHDVTCSIGTEGHELIDAGLRYLGSDLDFSRTLMAAHNLQGKNALIFRADALQPASRGADVIIADPARRAGGKRITNPAQLLPPLPSLLDAWINQPLAVKCAPGLDFSEWPGLVSIASVDGGVKEACLYTTDLADGETREAIVIKDGLIDRITNFEDDATGQDLAAAPGEFIIDPDGAIVRAGLVRHYAVREQLWMLDERIAYLTGNRIPEGTSGFRFIEEVPLKKLKSAMAAHDAGAVEILVRGVDVDPDQLRKRLQLKGTKAMSVVITRIGSRGVALICGPRERA", "soluble on expression in E. coli": "not soluble"}
